{
  "source": "paper PMC3773300",
  "about": "(Journal of inorganic biochemistry, 2013)",
  "origin": "cited, not measured here",
  "settings": "Mb",
  "data": [
    {"substance": "Mb: Myoglobin, heme protein involved in reversible O2 binding", "values": [
      {"measurement": "redox potential", "value": 59, "unit": "mV"}
    ]}
  ]
}
